Experimental data published in paper PMC10665349.
“And” between values parts separate entries of the source, which are not always exact repeats. Equal entries are not always repeated. Where two headings read alike, the source gives them in different places.

Key:
[1] = target: GST fused to the C-terminal residues 200-294 of HMPV P (strain CAN97-83) (human metapneumovirus strain CAN97-83)
[2] = target: HMPV nucleoprotein N (strain NL/00/1), assembled and RNA-bound (N-RNA) (human metapneumovirus strain NL/00/1) (UniProt Q6WBA1); experiment: cryo-EM structure; single-particle cryo-EM of recombinant N-RNA (1.0 mg/ml) in 25 mM Tris-HCl pH 8.0, 250 mM NaCl; 2D classification and 3D reconstruction of 10-mer, 11-mer and spiral particles, local refinement of an N-RNA dimer
[3] = target: HMPV nucleoprotein N (strain NL/00/1), assembled and RNA-bound (N-RNA) (human metapneumovirus strain NL/00/1) (UniProt Q6WBA1); experiment: as above; remark: listed apart in the source

HMPV N (strain NL99-1, plasmid pN) triple mutant with alanines in positions 100, 103 and 111 (natural protein)
HMPV polymerase activity, minigenome assay (Firefly luciferase) in BSRT7/5 cells, compared to wild-type; N and full-length P of strain NL99-1 from pCite plasmids (% of wild-type) [1]: 30

HMPV N (strain NL99-1, plasmid pN) L111A (natural protein)
HMPV polymerase activity, minigenome assay (Firefly luciferase) in BSRT7/5 cells, compared to wild-type; N and full-length P of strain NL99-1 from pCite plasmids (% of wild-type) [1]: < 50

HMPV N (strain CAN97-83) with a C-terminal 6xHis tag, L111E (natural protein)
HMPV polymerase activity, minigenome assay (Firefly luciferase) in BSRT7/5 cells, compared to wild-type; N and full-length P of strain NL99-1 from pCite plasmids (% of wild-type) [1]: 10

HMPV nucleoprotein N (strain NL/00/1), assembled and RNA-bound (N-RNA) (from UniProt Q6WBA1 1-394) (natural protein)
stoichiometry N [2]: > 12 protomers
stoichiometry N [3]: 10 protomers and 11 protomers and 12 protomers
